From FireProtDB (doi:10.1021/bi034798l) come the findings set out here.

First the molecules themselves.
B1: SH2 domain-containing protein 1A, O60880 (parent)
chain: MDAVAVYHGKISRETGEKLLLATGLDGSYLLRDSESVPGVYCLCVLYHGYIYTYRVSQTETGSWSAETAPGVHKRYFRKIKNLISAFQKPDQGIVIPLQYPVEKKSSARSTQGTTGIREDPDVCLKAP

Variants of B1 are the subject of this series. The following applies: Homo sapiens; pH 7.4; Thermal; CD; Phosphate buffer saline; structure 1KA6; whole UniProt chain shown.

Regarding MDAVAVYHGKISRETGEKLLLATGLDGSYLLRDSESVPGVYCLCVLYHGYIYTYRVSQTETGSWSAETAPGVHKRYFRKIKNLISAFQKPDQDIVIPLQYPVEKKSSARSTQGTTGIREDPDVCLKAP, the Tm was 49.1 °C and the “change of melting temperature, mutant - wild type (higher = more stable)” value (“change of melting temperature, mutant” below) was -8.7 °C.
As for MDAVAVYHGKISRETGEKLLLATGLDGSYLLRDSESVPGVYCLCVLYHGYIYTYRVSQTETGSWSAETAPGVHKRYFRKIKNLISASQKPDQGIVIPLQYPVEKKSSARSTQGTTGIREDPDVCLKAP, the Tm was 50.5 °C and the “change of melting temperature, mutant” value is -7.3 °C.
In the case of MDAVAVYHGKISRETGEKLLLATGLDGSYLLRDSESVPGVYCLCVLYHGYIYTCRVSQTETGSWSAETAPGVHKRYFRKIKNLISAFQKPDQGIVIPLQYPVEKKSSARSTQGTTGIREDPDVCLKAP, the Tm worked out at 48.2 °C and the “change of melting temperature, mutant” value was -9.6 °C.
Take MDAVAVYHGKISRETGEKLLLATGLDGSYLPRDSESVPGVYCLCVLYHGYIYTYRVSQTETGSWSAETAPGVHKRYFRKIKNLISAFQKPDQGIVIPLQYPVEKKSSARSTQGTTGIREDPDVCLKAP: the Tm was determined as 45.6 °C and the “change of melting temperature, mutant” value was -12.2 °C.
Taken in the same sequence, the figures for MDAVAVYHGKISRETGEKLLLATGLDGSYLLRDSESVPGVYCLCVLYHGYIYTYRVSQTETGSWSADTAPGVHKRYFRKIKNLISAFQKPDQGIVIPLQYPVEKKSSARSTQGTTGIREDPDVCLKAP were 44.2 °C and -13.6 °C.

In general, Tm refers to the temperature at the midpoint of the melting transition.
